This note sets out measurements from article PMC11533912 (Journal of Nuclear Medicine, 2024).

What is called tissue uptake is the percentage of the injected dose found per gram of tissue. A high value points to strong accumulation.

Molecules are shown by their SMILES. Entries after “also recorded” stand apart in the source; their conditions may differ. Some results are limits rather than exact numbers.

The conditions of series [1]: in vivo.
Series [2] can be described thus: Biodistribution in tumor-free CD-1 mice. It counts as in vivo.
For series [3] the following is noted: in vivo. This is another data set of the same source.
The next series has as its system PC-3 xenograft tumors. Nature of the series: α-imaging and biodistribution in PC-3 tumors of varying size. It counts as in vivo, mice. As to the method:
For all tumor studies, 1 × 10^6 PC-3 cells were implanted subcutaneously into the right flank of each mouse in a mixture of equal volumes of HC-Matrigel (high concentration; Corning) and RPMI medium (Gibco) and grown to a volume of about 200–300 mm^3.
Images were analyzed using Andor Solis software (ImageJ).
FIGURE 5. Biodistribution in varying-size tumors and drug microdistribution in tumor using α-imaging of [^212Pb]Pb-DOTAM-GRPR1. […] (B) Biodistribution of drug at 4 h after injection in tumors measuring 150 mm^3 (n = 5), 300 mm^3 (n = 6), 600 mm^3 (n = 4), and 900 mm^3 (n = 3). In left panel, tissue uptake is expressed as %ID/g ± SD (P < 0.05). Right panel is expressed as %ID ± SD. H&E = hematoxylin and eosin; LWH = length × width × height.

On to `CC(C)C[C@H](NC(=O)C[C@H](O)[C@H](CC(C)C)NC(=O)[C@H](Cc1c[nH]cn1)NC(=O)CNC(=O)[C@@H](NC(=O)[C@H](C)NC(=O)[C@H](Cc1c[nH]c2ccccc12)NC(=O)[C@H](CCC(N)=O)NC(=O)[C@@H](Cc1ccccc1)NC(=O)CCNC(=O)CCNC(=O)CN1CCN(CC(N)=O)CCN(CC(N)=O)CCN(CC(N)=O)CC1)C(C)C)C(N)=O` [[^212Pb]Pb-DOTAM-GRPR1, metal not drawn], for which, in series [1], the Route of excretion entry was “predominantly renal route of excretion”. In addition, the “Pancreas and kidney accumulation at 24 h” value in series [2] (24 h after injection, pancreas and kidneys, strain not clearly stated) is “significantly less accumulation by 24 h after injection”. In series [2] (mouse, all tissues, intravenous, 4 h after drug administration, tumor-free CD-1 mice, 'well below'), this compound showed a tissue uptake at 4 h of less than 10 %ID/g. In addition, in series [2] (pancreas and kidneys, strain not clearly stated), the Nontarget uptake ranking result is “The pancreas and kidneys showed the highest nontarget uptake”. Further, the “Biodistribution profile / accumulation in normal organs” value in series [2] (tumor-free CD-1 mice) is given as “did not reveal any unexpected accumulation in normal organs”. In series [3], the “Effect of renal blockers on kidney retention” value is listed as “neither agent reduced the kidney retention”. Besides, the “Correlation of tumor volume and tumor uptake” value with PC-3 xenograft tumors (4 h after injection, tumors 150 (n = 5), 300 (n = 6), 600 (n = 4), 900 mm^3 (n = 3), visible in %ID/g but not in %ID) was “negative correlation between tumor volume and tumor uptake; also recorded: lower tumor uptake in large tumors (%ID/g but not %ID)”. Further, the “Microdistribution in PC-3 tumors (α-imaging, H&E)” value with PC-3 xenograft tumors (tumor sizes up to 900 mm^3, except necrotic areas) is “homogeneous distribution of the drug at various tumor sizes of up to 900 mm^3, except for the necrotic areas; also recorded: homogeneous microdistribution”.
